# According to paper PMC8990217, “DUX4 is a multifunctional factor priming human embryonic genome activation” (iScience, 2022):
# B1: DUX4 9aaTAD peptide for binding analysis (peptide)
# peptide: CGLLLDELLASPEFLQQ
# notes: source: synthetic peptide, bought: GenScript
# B2: DUX4 KBM peptide for binding analysis (peptide)
# peptide: EEEYRALLEE
# notes: as for B1
# How the values were obtained:
# [1] = target: T1, human KIX domain of CBP (residues 587-673) with 36 extra N-terminal residues (human, UniProt Q92793 587-673, RED-tris-NTA dye bound non-covalently to the His tag); assay: MST; His-tagged KIX labelled with RED-tris-NTA, 20 nM; peptide varied; PBS-Tween (pH 7.4; 0.05% v/v Tween 20); Monolith NT; conditions: both partners purified
# T1 construct: synthetic codon-optimised gene in pET100/TOPO; construct 14.5 kDa; no cleavage is described; also called His-tagged KIX domain; source: E. coli BL21 DE3, purified (Histrap HP, Resource Q, Superdex 75); not shown: His6, N-terminal, kept
# [2] = target: T1, human KIX domain of CBP (residues …); assay: MST; as a1, KBM peptide binding to labelled KIX in the presence of the 9aaTAD peptide (its concentration not told); conditions: both partners purified
# T1 sequence (Q92793 587-673): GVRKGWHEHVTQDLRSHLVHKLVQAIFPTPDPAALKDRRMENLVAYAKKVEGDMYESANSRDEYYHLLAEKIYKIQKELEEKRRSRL
Binder,Kd [1],Kd [2]
B1,~200 nM,–
B2,~600 nM,~1100 nM
